Where a chain is given by its changes, count along the chain named.
T1: Human MAdCAM (human, UniProt Q13477 19-317, limits assumed)
T1 construct: also called huMAdCAM; human MAdCAM-1
T1 sequence (looked up): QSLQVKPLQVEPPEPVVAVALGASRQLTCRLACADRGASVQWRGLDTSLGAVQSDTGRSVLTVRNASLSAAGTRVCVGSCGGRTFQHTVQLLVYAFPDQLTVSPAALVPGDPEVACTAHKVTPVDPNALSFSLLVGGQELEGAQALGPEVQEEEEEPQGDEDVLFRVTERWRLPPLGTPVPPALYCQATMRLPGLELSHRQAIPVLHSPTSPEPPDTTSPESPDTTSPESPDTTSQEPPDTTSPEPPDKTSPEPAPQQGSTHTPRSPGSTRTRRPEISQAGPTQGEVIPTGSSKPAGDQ

B1: PMAB21 (bispecific antibody, human IgG1, kappa)
heavy: EVQLLESGGGLVQPGGSLRLSCAASGFTFSNSDMSWVRQAPGKGLEWVSGITISGGSTYYADSVKGRFTISRDNSKNTLYLQMNSLRAEDTAVYYCARGRGGSGWLDYWGQGTLVTVSSASTKGPSVFPLAPSSKSTSGGTAALGCLVKDYFPEPVTVSWNSGALTSGVHTFPAVLQSSGLYSLSSVVTVPSSSLGTQTYICNVNHKPSNTKVDKKVEPKSCDKTHTCPPCPAPEAAGAPSVFLFPPKPKDTLMISRTPEVTCVVVDVSHEDPEVKFNWYVDGVEVHNAKTKPREEQYNSTYRVVSVLTVLHQDWLNGKEYKCKVSNKALPAPIEKTISKAKGQPREPQVYTLPPSREEMTKNQVSLTCLVKGFYPSDIAVEWESNGQPENNYKTTPPVLDSDGSFFLYSKLTVDKSRWQQGNVFSCSVMHEALHNHYTQKSLSLSPGGGGGSGGGGSGGGGSEVQLLESGGGLVQPGGSLRLSCAASGFTFSDFAMHWVRQAPGKGLEWISYISGDSGYTNYADSVKGRFTISRDNSKNTLYLQMNSLRAEDTAVYYCARDRPYYYYMDVWGKGTTVTVSSGGGGSGGGGSGGGGSGGGGSDIQMTQSPSSLSASVGDRVTITCRASQSVSRSLAWYQQKPGKAPKLLIYAASSLQSGVPSRFSGSGSGTDFTLTISSLQPEDFATYYCQQYKSYPVTFGQGTKVEIK
light: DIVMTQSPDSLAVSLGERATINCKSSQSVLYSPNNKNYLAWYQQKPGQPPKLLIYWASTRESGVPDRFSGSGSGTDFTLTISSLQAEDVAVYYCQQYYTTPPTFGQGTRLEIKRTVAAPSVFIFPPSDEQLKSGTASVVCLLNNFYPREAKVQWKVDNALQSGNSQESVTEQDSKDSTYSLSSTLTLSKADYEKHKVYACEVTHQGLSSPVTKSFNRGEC
B2: PMAB39 (bispecific antibody, human IgG1, kappa)
heavy: B1 heavy with A496W, A636N
light: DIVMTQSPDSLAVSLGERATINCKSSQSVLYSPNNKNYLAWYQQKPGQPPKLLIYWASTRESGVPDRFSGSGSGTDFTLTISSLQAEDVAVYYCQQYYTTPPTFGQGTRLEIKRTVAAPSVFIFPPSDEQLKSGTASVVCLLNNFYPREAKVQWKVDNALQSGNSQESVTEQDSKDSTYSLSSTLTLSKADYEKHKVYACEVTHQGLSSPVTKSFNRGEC
B3: PMAB43 (bispecific antibody, human IgG1, kappa)
heavy: B1 heavy with A496W, V698R
light: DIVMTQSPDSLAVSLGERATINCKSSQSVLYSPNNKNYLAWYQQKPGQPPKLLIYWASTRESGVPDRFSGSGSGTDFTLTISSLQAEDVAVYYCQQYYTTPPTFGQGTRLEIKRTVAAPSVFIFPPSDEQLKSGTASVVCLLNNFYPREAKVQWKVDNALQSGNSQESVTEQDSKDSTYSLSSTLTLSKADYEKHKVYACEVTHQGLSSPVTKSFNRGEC
B4: PMAB38 (bispecific antibody, human IgG1, kappa)
heavy: B1 heavy with A496W, S634Y
light: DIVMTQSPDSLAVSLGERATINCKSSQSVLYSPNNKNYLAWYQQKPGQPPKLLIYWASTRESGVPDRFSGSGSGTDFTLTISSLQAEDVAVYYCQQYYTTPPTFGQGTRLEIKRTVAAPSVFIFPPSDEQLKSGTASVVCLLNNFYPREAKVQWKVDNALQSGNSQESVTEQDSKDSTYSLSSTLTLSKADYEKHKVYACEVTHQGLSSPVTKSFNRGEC
B5: MIAB149 (antibody, human IgG1, kappa)
heavy: EVQLLESGGGLVQPGGSLRLSCAASGFTFSDFWMHWVRQAPGKGLEWISYISGDSGYTNYADSVKGRFTISRDNSKNTLYLQMNSLRAEDTAVYYCARDRPYYYYMDVWGKGTTVTVSSASTKGPSVFPLAPSSKSTSGGTAALGCLVKDYFPEPVTVSWNSGALTSGVHTFPAVLQSSGLYSLSSVVTVPSSSLGTQTYICNVNHKPSNTKVDKKVEPKSCDKTHTCPPCPAPEAAGAPSVFLFPPKPKDTLMISRTPEVTCVVVDVSHEDPEVKFNWYVDGVEVHNAKTKPREEQYNSTYRVVSVLTVLHQDWLNGKEYKCKVSNKALPAPIEKTISKAKGQPREPQVYTLPPSREEMTKNQVSLTCLVKGFYPSDIAVEWESNGQPENNYKTTPPVLDSDGSFFLYSKLTVDKSRWQQGNVFSCSVMHEALHNHYTQKSLSLSPGGGGGSAPTSSSTKKTQLQLEHLLLDLQMILNGINNYKNPKLTRMLTFKFYMPKKATELKHLQCLEEELKPLEEALNLAPSKNFHLRPRDLISDINVIVLELKGSETTFMCEYADETATIVEFINRWITFSQSIISTLT
light: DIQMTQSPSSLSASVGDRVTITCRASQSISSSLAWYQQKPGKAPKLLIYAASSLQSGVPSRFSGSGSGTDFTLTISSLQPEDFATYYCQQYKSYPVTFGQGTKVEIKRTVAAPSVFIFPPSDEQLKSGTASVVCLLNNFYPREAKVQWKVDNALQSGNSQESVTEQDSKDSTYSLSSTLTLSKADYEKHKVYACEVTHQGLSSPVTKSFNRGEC
notes: also called MIAB149-001
B6: MIAB178 (antibody, human IgG1, kappa)
heavy: B5 heavy with D31S, F32Y, Y50A, D54S, Y57S, N59Y
light: DIQMTQSPSSLSASVGDRVTITCRASQSVSRSLAWYQQKPGKAPKLLIYAASSLQSGVPSRFSGSGSGTDFTLTISSLQPEDFATYYCQQYKSYPVTFGQGTKVEIKRTVAAPSVFIFPPSDEQLKSGTASVVCLLNNFYPREAKVQWKVDNALQSGNSQESVTEQDSKDSTYSLSSTLTLSKADYEKHKVYACEVTHQGLSSPVTKSFNRGEC
notes: also called MIAB178-001
B7: MIAB184 (antibody, human IgG1, kappa)
heavy: B5 heavy with D31S, F32Y, I48V, Y50A, D54S, S55G, Y57S, N59Y
light: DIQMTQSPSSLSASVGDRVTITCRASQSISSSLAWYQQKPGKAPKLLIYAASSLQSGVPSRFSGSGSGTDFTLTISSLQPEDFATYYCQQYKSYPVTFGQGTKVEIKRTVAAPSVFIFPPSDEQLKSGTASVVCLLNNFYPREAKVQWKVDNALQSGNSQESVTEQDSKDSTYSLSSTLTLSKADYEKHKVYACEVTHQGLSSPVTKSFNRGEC
notes: also called MIAB184-001
B8: MIAB175 (antibody, human IgG1, kappa)
heavy: B5 heavy with D31S, F32Y
light: B6 light
notes: also called MIAB175-001
B9: MIAB145 (antibody, human IgG1, kappa)
heavy: B5 heavy
light: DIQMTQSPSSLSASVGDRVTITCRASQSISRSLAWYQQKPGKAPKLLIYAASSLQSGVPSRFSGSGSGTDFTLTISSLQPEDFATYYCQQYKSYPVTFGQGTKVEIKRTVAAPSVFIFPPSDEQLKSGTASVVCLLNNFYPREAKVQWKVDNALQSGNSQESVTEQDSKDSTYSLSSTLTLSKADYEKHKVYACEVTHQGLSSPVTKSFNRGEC
notes: also called MIAB145-001
B10: MIAB182 (antibody, human IgG1, kappa)
heavy: B5 heavy with D31S, F32Y, I48V, Y50A, D54S, S55G, Y57S, N59Y
light: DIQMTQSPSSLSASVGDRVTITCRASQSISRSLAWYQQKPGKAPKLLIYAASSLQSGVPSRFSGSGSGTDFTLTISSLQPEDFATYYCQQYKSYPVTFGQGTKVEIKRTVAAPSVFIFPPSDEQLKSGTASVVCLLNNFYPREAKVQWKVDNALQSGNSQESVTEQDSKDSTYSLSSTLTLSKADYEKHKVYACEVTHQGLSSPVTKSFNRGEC
notes: also called MIAB182-001
B11: MIAB147 (antibody, human IgG1, kappa)
heavy: B5 heavy
light: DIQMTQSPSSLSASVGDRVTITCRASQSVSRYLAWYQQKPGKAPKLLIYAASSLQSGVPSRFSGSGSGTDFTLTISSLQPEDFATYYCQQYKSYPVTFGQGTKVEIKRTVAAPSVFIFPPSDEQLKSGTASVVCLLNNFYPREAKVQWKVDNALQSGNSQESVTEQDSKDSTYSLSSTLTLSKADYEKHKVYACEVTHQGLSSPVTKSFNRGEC
notes: also called MIAB147-001
B12: MIAB146 (antibody, human IgG1, kappa)
heavy: B5 heavy
light: B6 light with R31S
notes: also called MIAB146-001
B13: MIAB177 (antibody, human IgG1, kappa)
heavy: B5 heavy with I48V, Y50A, D54S, S55G, Y57S, N59Y
light: B6 light
notes: also called MIAB177-001
B14: MIAB183 (antibody, human IgG1, kappa)
heavy: B5 heavy with D31S, F32Y, I48V, Y50A, D54S, S55G, Y57S, N59Y
light: B6 light with R31S
notes: also called MIAB183-001
B15: MIAB133 (antibody, human IgG1, kappa)
heavy: B5 heavy with D31S
light: B6 light
notes: also called MIAB133-001
B16: MIAB141 (antibody, human IgG1, kappa)
heavy: B5 heavy
light: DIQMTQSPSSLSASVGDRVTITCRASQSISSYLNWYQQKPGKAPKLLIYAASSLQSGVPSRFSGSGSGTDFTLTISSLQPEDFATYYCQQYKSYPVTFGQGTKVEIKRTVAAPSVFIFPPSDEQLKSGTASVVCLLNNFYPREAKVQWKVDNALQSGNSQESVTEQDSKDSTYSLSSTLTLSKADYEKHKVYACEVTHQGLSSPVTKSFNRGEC
notes: LCDR1 germlined
B17: MIAB174 (antibody, human IgG1, kappa)
heavy: B5 heavy with F32Y
light: B6 light
notes: also called MIAB174-001
B18: MIAB137 (antibody, human IgG1, kappa)
heavy: B5 heavy with I48V, Y50A, D54S, S55G, Y57S, N59Y
light: B6 light
notes: HCDR2 germlined
B19: MIAB136 (antibody, human IgG1, kappa)
heavy: B5 heavy with D31S, F32Y, W33A, H35S
light: B6 light
notes: HCDR1 germlined
B20: MIAB129 (antibody, human IgG1, kappa)
heavy: B5 heavy with Y102G
light: B6 light
B21: MIAB139 (antibody)
heavy: B5 heavy
light: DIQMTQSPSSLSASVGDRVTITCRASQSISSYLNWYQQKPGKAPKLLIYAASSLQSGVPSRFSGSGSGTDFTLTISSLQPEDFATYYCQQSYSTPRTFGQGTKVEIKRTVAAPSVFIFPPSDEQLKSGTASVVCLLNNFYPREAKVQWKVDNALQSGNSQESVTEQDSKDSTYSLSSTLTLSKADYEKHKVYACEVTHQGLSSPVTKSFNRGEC
B22: MIAB198 (antibody, human IgG1, kappa)
heavy: B5 heavy with Y105I, T456A
light: B6 light
notes: also called MIAB198-CHO; MIAB198-HEK

Molecular target: T1, Human MAdCAM
Assay: BLI Octet, AHC capture

Row | Kd [nM] | koff [s⁻¹] | kon [M⁻¹ s⁻¹] | fold reduction of affinity vs PRNT1 [fold] | Binder | binding result
1 | – | – | – | – | B1 | no binding (tested: 300 nM top concentration)
2 | – | – | – | – | B2 | no binding (tested: 200 nM top concentration)
3 | – | – | – | – | B3 | no binding (tested: 200 nM top concentration)
4 | – | – | – | – | B4 | no binding (tested: 200 nM top concentration)
5 | 68.8 | 0.0259 | 376000 | – | B5 | –
6 | 519 | 0.22 | 372000 | – | B6 | –
7 | 563 | 0.0818 | 145000 | 40 | B7 | –
8 | 22.6 | 0.0106 | 471000 | – | B8 | –
9 | 22.2 | 0.00897 | 405000 | – | B9 | –
10 | 119 | 0.0267 | 226000 | 10 | B10 | –
11 | – | – | – | – | B11 | no binding (tested: 200 nM)
12 | 43.8 | 0.0197 | 449000 | – | B12 | –
13 | 218 | 0.0851 | 391000 | – | B13 | –
14 | 362 | 0.0599 | 166000 | 20 | B14 | –
15 | 20 | 0.0113 | 564000 | – | B15 | –
16 | – | – | – | – | B16 | no binding (tested: 150 nM)
17 | 21.8 | 0.00969 | 445000 | – | B17 | –
18 | 203 | 0.082 | 404000 | – | B18 | –
19 | – | – | – | – | B19 | no binding (tested: 150 nM)

Molecular target: T2, Insulin (UniProt P01308 25-54; P01308 90-110)
T2 construct: Polyreactivity antigen; mature insulin has A and B chains; also called human insulin
Assay: ELISA on insulin-coated plate

Row | binding result | Binder
20 | no binding (tested: 100 nM) | B20
21 | no binding (tested: 100 nM) | B21
22 | no binding (tested: 100 nM) | B22
23 | no binding (tested: 100 nM) | B16

Molecular target: T2, Insulin
Assay: ELISA on insulin-coated plate, 100 nM
Protocol: Non-specific DNA and Insulin binding is predictive of poor pharmacokinetics (PK). An immunosorbent plate was coated with dsDNA at a concentration of 1 μg/mL or Insulin at 5 μg/mL in PBS pH 7.4, 75 μl/well, and incubated overnight at 4° C. Wells were washed with PBS pH 7.4 containing 0.05% Tween-20 (wash buffer) three times, and then blocked with 200 μl/well 1% BSA in PBS pH 7.4 (block buffer) for two hours at room temperature. […] The diluted material was added to the DNA/insulin coated plate at 75 μl/well for 1 hour at room temperature. After three washes with wash buffer, a donkey anti-human FcY HRP conjugated polyclonal antibody, diluted to 1:5000 in assay buffer, was added to the plate at 75 μl/well for 1 hr at room temperature. After three washes with wash buffer and three washes with wash buffer (with no tween-20), the assay was developed with TMB, and stopped with 1N HCL. OD 450 nm was measured. The experiment included appropriate controls for non-specific binding of test articles to the plate/block in the absence of DNA or insulin.

Row | Insulin polyreactivity score | Binder
24 | 2.43 | B20
25 | 2.08 | B21
